According to patent US20140087995A1 (published 2014):
Numbered stars: 1 amine (or outer) side, 2 acyl side, 3 side chain; on linkers, the order of the positions; unused ones are H or OH. Bridge positions count the residues as written; N and C are the ends. Side chains are listed from the residue outwards. Ends that are not written are not given here. * marks the point of attachment. C20 diacid = O=C(O)CCCCCCCCCCCCCCCCCCC(=O)*; γGlu = O=C(O)[C@H](CCC(=O)[*:2])N[*:1]

T1: human calcitonin receptor (human, UniProt P30988 25-474)
T1 construct: whole, on cells; also called hCTR; hCT
T1 sequence (looked up): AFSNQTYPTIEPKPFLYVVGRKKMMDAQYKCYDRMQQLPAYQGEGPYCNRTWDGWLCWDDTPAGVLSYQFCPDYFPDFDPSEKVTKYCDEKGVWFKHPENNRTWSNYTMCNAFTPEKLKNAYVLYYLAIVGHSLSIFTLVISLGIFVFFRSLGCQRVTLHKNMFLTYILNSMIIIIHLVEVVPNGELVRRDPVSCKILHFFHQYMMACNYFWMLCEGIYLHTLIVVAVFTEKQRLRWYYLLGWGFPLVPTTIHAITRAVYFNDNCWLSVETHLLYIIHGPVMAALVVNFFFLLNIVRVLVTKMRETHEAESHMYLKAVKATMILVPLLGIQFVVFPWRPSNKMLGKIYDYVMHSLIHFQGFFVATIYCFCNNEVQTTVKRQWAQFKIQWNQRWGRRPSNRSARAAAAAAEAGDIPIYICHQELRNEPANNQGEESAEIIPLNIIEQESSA

B1: N^ε1-[(4S)-4-carboxy-4-[[(4S)-4-carboxy-4-(19-carboxynonadecanoylamino)butanoyl]amino]butanoyl]-[Asp14,Arg17,Pro21,Pro26,Asp35]-h-amylin (peptide)
peptide: K([γGlu-γGlu-C20 diacid])CNTATCATQRLADFLRHSSPNFGAPLSSTNVGSDTY-NH2
modifications: disulfide 2-7; N-terminus assumed
SMILES: CC(C)C[C@H](NC(=O)[C@H](CCCNC(=N)N)NC(=O)[C@H](CCC(N)=O)NC(=O)[C@@H](NC(=O)[C@H](C)NC(=O)[C@@H]1CSSC[C@H](NC(=O)[C@@H](N)CCCCNC(=O)CC[C@H](NC(=O)CC[C@H](NC(=O)CCCCCCCCCCCCCCCCCCC(=O)O)C(=O)O)C(=O)O)C(=O)N[C@@H](CC(N)=O)C(=O)N[C@@H]([C@@H](C)O)C(=O)N[C@@H](C)C(=O)N[C@@H]([C@@H](C)O)C(=O)N1)[C@@H](C)O)C(=O)N[C@@H](C)C(=O)N[C@@H](CC(=O)O)C(=O)N[C@@H](Cc1ccccc1)C(=O)N[C@@H](CC(C)C)C(=O)N[C@@H](CCCNC(=N)N)C(=O)N[C@@H](Cc1c[nH]cn1)C(=O)N[C@@H](CO)C(=O)N[C@@H](CO)C(=O)N1CCC[C@H]1C(=O)N[C@@H](CC(N)=O)C(=O)N[C@@H](Cc1ccccc1)C(=O)NCC(=O)N[C@@H](C)C(=O)N1CCC[C@H]1C(=O)N[C@@H](CC(C)C)C(=O)N[C@@H](CO)C(=O)N[C@@H](CO)C(=O)N[C@H](C(=O)N[C@@H](CC(N)=O)C(=O)N[C@H](C(=O)NCC(=O)N[C@@H](CO)C(=O)N[C@@H](CC(=O)O)C(=O)N[C@H](C(=O)N[C@@H](Cc1ccc(O)cc1)C(N)=O)[C@@H](C)O)C(C)C)[C@@H](C)O
notes: also called compound 1
B2: N^ε1-[(4S)-4-carboxy-4-[[(4S)-4-carboxy-4-(19-carboxynonadecanoylamino)butanoyl]amino]butanoyl]-[Asp14,Arg17,Pro22,Pro26,Asp35]-h-amylin (peptide)
peptide: K([γGlu-γGlu-C20 diacid])CNTATCATQRLADFLRHSSNPFGAPLSSTNVGSDTY-NH2
modifications: disulfide 2-7; N-terminus assumed
SMILES: CC(C)C[C@H](NC(=O)[C@H](CCCNC(=N)N)NC(=O)[C@H](CCC(N)=O)NC(=O)[C@@H](NC(=O)[C@H](C)NC(=O)[C@@H]1CSSC[C@H](NC(=O)[C@@H](N)CCCCNC(=O)CC[C@H](NC(=O)CC[C@H](NC(=O)CCCCCCCCCCCCCCCCCCC(=O)O)C(=O)O)C(=O)O)C(=O)N[C@@H](CC(N)=O)C(=O)N[C@@H]([C@@H](C)O)C(=O)N[C@@H](C)C(=O)N[C@@H]([C@@H](C)O)C(=O)N1)[C@@H](C)O)C(=O)N[C@@H](C)C(=O)N[C@@H](CC(=O)O)C(=O)N[C@@H](Cc1ccccc1)C(=O)N[C@@H](CC(C)C)C(=O)N[C@@H](CCCNC(=N)N)C(=O)N[C@@H](Cc1c[nH]cn1)C(=O)N[C@@H](CO)C(=O)N[C@@H](CO)C(=O)N[C@@H](CC(N)=O)C(=O)N1CCC[C@H]1C(=O)N[C@@H](Cc1ccccc1)C(=O)NCC(=O)N[C@@H](C)C(=O)N1CCC[C@H]1C(=O)N[C@@H](CC(C)C)C(=O)N[C@@H](CO)C(=O)N[C@@H](CO)C(=O)N[C@H](C(=O)N[C@@H](CC(N)=O)C(=O)N[C@H](C(=O)NCC(=O)N[C@@H](CO)C(=O)N[C@@H](CC(=O)O)C(=O)N[C@H](C(=O)N[C@@H](Cc1ccc(O)cc1)C(N)=O)[C@@H](C)O)C(C)C)[C@@H](C)O
notes: also called compound 3
B3: N^ε1-[(4S)-4-carboxy-4-[[(4S)-4-carboxy-4-(19-carboxynonadecanoylamino)butanoyl]amino]butanoyl]-[Glu14,Arg17,Pro21,Pro27,Pro37]-h-amylin (peptide)
peptide: K([γGlu-γGlu-C20 diacid])CNTATCATQRLAEFLRHSSPNFGAIPSSTNVGSNTP-NH2
modifications: disulfide 2-7 (inferred)
notes: also called compound 13
B4: N^ε1-[(4S)--4-carboxy-4-(19-carboxynonadecanoylamino)butanoyl]-[Glu14,Arg17,Pro21,Pro27,Pro37]-h-amylin (peptide)
peptide: K([γGlu-C20 diacid])CNTATCATQRLAEFLRHSSPNFGAIPSSTNVGSNTP-NH2
modifications: disulfide 2-7; N-terminus assumed
SMILES: CC[C@H](C)[C@H](NC(=O)[C@H](C)NC(=O)CNC(=O)[C@H](Cc1ccccc1)NC(=O)[C@H](CC(N)=O)NC(=O)[C@@H]1CCCN1C(=O)[C@H](CO)NC(=O)[C@H](CO)NC(=O)[C@H](Cc1c[nH]cn1)NC(=O)[C@H](CCCNC(=N)N)NC(=O)[C@H](CC(C)C)NC(=O)[C@H](Cc1ccccc1)NC(=O)[C@H](CCC(=O)O)NC(=O)[C@H](C)NC(=O)[C@H](CC(C)C)NC(=O)[C@H](CCCNC(=N)N)NC(=O)[C@H](CCC(N)=O)NC(=O)[C@@H](NC(=O)[C@H](C)NC(=O)[C@@H]1CSSC[C@H](NC(=O)[C@@H](N)CCCCNC(=O)CC[C@H](NC(=O)CCCCCCCCCCCCCCCCCCC(=O)O)C(=O)O)C(=O)N[C@@H](CC(N)=O)C(=O)N[C@@H]([C@@H](C)O)C(=O)N[C@@H](C)C(=O)N[C@@H]([C@@H](C)O)C(=O)N1)[C@@H](C)O)C(=O)N1CCC[C@H]1C(=O)N[C@@H](CO)C(=O)N[C@@H](CO)C(=O)N[C@H](C(=O)N[C@@H](CC(N)=O)C(=O)N[C@H](C(=O)NCC(=O)N[C@@H](CO)C(=O)N[C@@H](CC(N)=O)C(=O)N[C@H](C(=O)N1CCC[C@H]1C(N)=O)[C@@H](C)O)C(C)C)[C@@H](C)O
notes: also called compound 12
B5: N{Alpha-1}-[(4S)-4-carboxy-4-(19-carboxynonadecanoylamino)butanoyl]-[Glu14,Arg17,Pro21,Pro27,Lys34]-h-amylin (peptide)
peptide: {C20 diacid-γGlu}-KCNTATCATQRLAEFLRHSSPNFGAIPSSTNVGKNTY-NH2
modifications: disulfide 2-7
SMILES: CC[C@H](C)[C@H](NC(=O)[C@H](C)NC(=O)CNC(=O)[C@H](Cc1ccccc1)NC(=O)[C@H](CC(N)=O)NC(=O)[C@@H]1CCCN1C(=O)[C@H](CO)NC(=O)[C@H](CO)NC(=O)[C@H](Cc1c[nH]cn1)NC(=O)[C@H](CCCNC(=N)N)NC(=O)[C@H](CC(C)C)NC(=O)[C@H](Cc1ccccc1)NC(=O)[C@H](CCC(=O)O)NC(=O)[C@H](C)NC(=O)[C@H](CC(C)C)NC(=O)[C@H](CCCNC(=N)N)NC(=O)[C@H](CCC(N)=O)NC(=O)[C@@H](NC(=O)[C@H](C)NC(=O)[C@@H]1CSSC[C@H](NC(=O)[C@H](CCCCN)NC(=O)CC[C@H](NC(=O)CCCCCCCCCCCCCCCCCCC(=O)O)C(=O)O)C(=O)N[C@@H](CC(N)=O)C(=O)N[C@@H]([C@@H](C)O)C(=O)N[C@@H](C)C(=O)N[C@@H]([C@@H](C)O)C(=O)N1)[C@@H](C)O)C(=O)N1CCC[C@H]1C(=O)N[C@@H](CO)C(=O)N[C@@H](CO)C(=O)N[C@H](C(=O)N[C@@H](CC(N)=O)C(=O)N[C@H](C(=O)NCC(=O)N[C@@H](CCCCN)C(=O)N[C@@H](CC(N)=O)C(=O)N[C@H](C(=O)N[C@@H](Cc1ccc(O)cc1)C(N)=O)[C@@H](C)O)C(C)C)[C@@H](C)O
notes: also called compound 36
B6: N^α1 N^α1-[(4S)-4-carboxy-4-[[(4S)-4-carboxy-4-(19-carboxynonadecanoylamino)butanoyl]amino]butanoyl]-[Glu14,Arg17,Pro21,Pro27]-h-amylin (peptide)
peptide: {C20 diacid-γGlu-γGlu}-KCNTATCATQRLAEFLRHSSPNFGAIPSSTNVGSNTY-NH2
modifications: disulfide 2-7
SMILES: CC[C@H](C)[C@H](NC(=O)[C@H](C)NC(=O)CNC(=O)[C@H](Cc1ccccc1)NC(=O)[C@H](CC(N)=O)NC(=O)[C@@H]1CCCN1C(=O)[C@H](CO)NC(=O)[C@H](CO)NC(=O)[C@H](Cc1c[nH]cn1)NC(=O)[C@H](CCCNC(=N)N)NC(=O)[C@H](CC(C)C)NC(=O)[C@H](Cc1ccccc1)NC(=O)[C@H](CCC(=O)O)NC(=O)[C@H](C)NC(=O)[C@H](CC(C)C)NC(=O)[C@H](CCCNC(=N)N)NC(=O)[C@H](CCC(N)=O)NC(=O)[C@@H](NC(=O)[C@H](C)NC(=O)[C@@H]1CSSC[C@H](NC(=O)[C@H](CCCCN)NC(=O)CC[C@H](NC(=O)CC[C@H](NC(=O)CCCCCCCCCCCCCCCCCCC(=O)O)C(=O)O)C(=O)O)C(=O)N[C@@H](CC(N)=O)C(=O)N[C@@H]([C@@H](C)O)C(=O)N[C@@H](C)C(=O)N[C@@H]([C@@H](C)O)C(=O)N1)[C@@H](C)O)C(=O)N1CCC[C@H]1C(=O)N[C@@H](CO)C(=O)N[C@@H](CO)C(=O)N[C@H](C(=O)N[C@@H](CC(N)=O)C(=O)N[C@H](C(=O)NCC(=O)N[C@@H](CO)C(=O)N[C@@H](CC(N)=O)C(=O)N[C@H](C(=O)N[C@@H](Cc1ccc(O)cc1)C(N)=O)[C@@H](C)O)C(C)C)[C@@H](C)O
notes: also called compound 15
B7: N^α1-[2-[2-[2-[[2-[2-[2-[[(4S)-4-carboxy-4-(19-carboxynonadecanoylamino)butanoyl]amino]ethoxy]ethoxy]acetyl]amino]ethoxy]ethoxy]acetyl]-[Glu14,Arg17,Pro21,Pro27 … (peptide)
peptide: KCNTATCATQRLAEFLRHSSPNFGAIPSSTNVGSNTY
modifications: C20 diacid-gGlu-2xOEG on the alpha amino group of the N-terminal residue; disulfide bridge Cys2-Cys7; C-terminal amide
notes: also called compound 19

These binders were tested against T1, human calcitonin receptor (assay: ratio of IC50 at hCTR to IC50 at the human amylin receptor (reference)).
How it was run: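 Scintillation proximity competition binding on cell membranes at 35 ng/μL with SPA beads, in 50 mM Hepes pH 7.4, 1 mM CaCl2, 5 mM MgCl₂, 0.1% OA, 0.02% Tween20. Incubated 120 min at 25° C with shaking. IC₅₀ from one-site competition fit.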

Q: With B1 as the binder, how does the “Ratio hCT/hAmylin binding” value read?
A: 27.6

Q: B2 was tested. Which “Ratio hCT/hAmylin binding” value did it give?
A: 17.3

Q: For B3, which “Ratio hCT/hAmylin binding” value is on record?
A: 1.2

Q: With B4 as the binder, how does the “Ratio hCT/hAmylin binding” value read?
A: 2.5

Q: For B5, which “Ratio hCT/hAmylin binding” value is on record?
A: 15.7

Q: B6 was tested. Which “Ratio hCT/hAmylin binding” value did it give?
A: 26

Q: For B7, which “Ratio hCT/hAmylin binding” value is on record?
A: 36.7

The binders below were run against T1, human calcitonin receptor (assay: SPA competition binding, membranes with human calcitonin receptor, displacement of 125I-calcitonin (Assay VII)).
How it was run: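 BHK hCTR membranes 35 ng/μL + SPA beads 0.05 mg/well; buffer 50 mM Hepes pH 7.4, 1 mM CaCl2, 5 mM MgCl₂, 0.1% OA, 0.02% Tween20. 120 min, 25° C., shaking. Scintillation count; IC50 by one-site binding competition.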

Q: Which IC50 does the source give for B1 here?
A: 32.5 nM

Q: B2 was tested. Which IC50 did it give?
A: 19.5 nM

Q: How did the IC50 turn out when B3 was run?
A: 0.305 nM

Q: Which IC50 does the source give for B4 here?
A: 0.353 nM

Q: Which IC50 does the source give for B5 here?
A: 6.3 nM

Q: Which IC50 does the source give for B6 here?
A: 15.5 nM

Q: Which IC50 does the source give for B7 here?
A: 20.4 nM
